± gives the half width of the 95% confidence interval.

A short description of data set [1]: folding stability dG unfold from trypsin proteolysis; higher = more stable. The method, boiled down: (§1)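 How resistant each design was to proteolysis was captured as K50, inferred by Bayesian fitting of sequencing counts. Unfolding free energy was then derived relative to a sequence-predicted unfolded-state K50 and a shared folded-state K50, per protease or combined. Digestion used trypsin and chymotrypsin at 11 threefold-diluted concentrations plus a no-protease condition, on mini-proteins under 80 residues without cysteine in a PA-tagged cDNA display construct. Designs were kept only when AlphaFold2 dimer inter-PAE was above 15.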

Data set [2] is described as follows: folding stability dG unfold from chymotrypsin proteolysis; higher = more stable. The method, boiled down: as §1
The nature of data set [3]: folding stability dG unfold (combined trypsin and chymotrypsin); higher = more stable. The procedure, abridged:
as §1

As for “SMVVLPVRYPDLSPEEARAAVEALAAEIEAAVGAEVRVEVEVERAPDGTPVRVLVTATVVIRTAADALLLSA [r9_21_JUSTAS]”, the “folding stability dG unfold” value in data set [1] was determined as 0.946 ± 0.061 kcal/mol; in data set [2] it was 1.16 ± 0.068 kcal/mol; in data set [3], 1.09 ± 0.12 kcal/mol.

In the case of “SMYKLSVYRNGQPVPEEEALERVKRIEEELGREVDPEELARLLAAEPDTVVTVTKYAEPGKPIGTLTYTRSA [r9_1045_JUSTAS]”, the “folding stability dG unfold” value in data set [1] was 1.32 ± 0.08 kcal/mol; in data set [2], 1.4 ± 0.17 kcal/mol; in data set [3], 1.39 ± 0.16 kcal/mol.

Regarding “SMYVIETSANKTYTVNVPPDGLVTITYPDGSTETRKFTSEEDLEAFAEELSKKYPDAPATIKPVPLEELGSA [r9_1206_JUSTAS]”, the figures for the “folding stability dG unfold” value in data set [1], in data set [2] and in data set [3] were 1.21 ± 0.11 kcal/mol, 0.473 ± 0.26 kcal/mol and 0.959 ± 0.25 kcal/mol, respectively.

As to “SNELAKEIADELKKQGYEVKDVEVQYSPDDGMVEIEARIRHPDDGRQYRIDIHVNPDDGKITQVKIEPRPSA [r9_814_TrROS]”, the figures for the “folding stability dG unfold” value in data set [1], in data set [2] and in data set [3] were 0.857 ± 0.028 kcal/mol, 0.644 ± 0.17 kcal/mol and 0.825 ± 0.17 kcal/mol, respectively.

As for “SNPISAVVPSPGGRYVLVVEYKDGSVEVYEFEGLSTAEEAKERALALLKESTEGEPREITRVVVLPAPPGSA [r9_1135_TrMRF]”, the “folding stability dG unfold” value in data set [1] turned out to be 4.3 ± 0.17 kcal/mol; in data set [2], 4.3 ± 0.051 kcal/mol; in data set [3] it was 4.33 ± 0.11 kcal/mol.

As to “SNPWVEITIYFPMRPDPNGKMQPLSPSELLEELLKQGFPIKDIDIDEVTDNYIPITIRIDAKDGKIEIEWSA [r9_225_TrROS]”, the “folding stability dG unfold” value was 2.12 ± 0.21 kcal/mol in data set [1], 3.18 ± 0.13 kcal/mol in data set [2] and 2.85 ± 0.19 kcal/mol in data set [3].

For “SNVHIHVEPDPDGRVKITLMMPPDNPDEFAEEIAENLGYPVKITDIEPFPFKKNGKPREYYMIEIEIRLPSA [r9_431_TrROS]”, the “folding stability dG unfold” value in data set [1] is 1.15 ± 0.13 kcal/mol; in data set [2], 2.56 ± 0.2 kcal/mol; in data set [3] it was 2.17 ± 0.25 kcal/mol.

For the sequence “SNYLMIRIKEIDPNNPNKIKIEDIHPMPDNGNVQINIEHPGQEIYVMFNSADDAEEFINTLLKNYGLKPESA [r9_258_TrROS]”, the “folding stability dG unfold” value in data set [1] worked out at 0.925 ± 0.053 kcal/mol; in data set [2], 1.6 ± 0.11 kcal/mol; in data set [3], 1.33 ± 0.098 kcal/mol.

In the case of “SPEIKIELVYDEETEELYLEIEIRFPESEEEAIEALKKLLEELGFEVVEIEEIEVEEDGTVRIRVRIRKKSA [r9_876_TrROS_Hall]”, the “folding stability dG unfold” value was 4.87 ± 0.31 kcal/mol in data set [1], 4.47 ± 0.7 kcal/mol in data set [2] and greater than 6 kcal/mol in data set [3].

“SPFIMIRIDIERKNGKEVEMMFPVPANNIKNNLRDHLGPGYKVKITDIEPIDPEQFPPGQMIKIRYRVKPSA [r9_803_TrROS]”: the “folding stability dG unfold” value in data set [1] stood at 1.73 ± 0.048 kcal/mol; in data set [2], 1.71 ± 0.13 kcal/mol; in data set [3], 1.79 ± 0.18 kcal/mol.

For the sequence “SPGMEPIREWELKLPDPDGEDKDLEVEMYRMPEGNYYVDISIPNGKKIPFPMPPDEPITPDDIRNFIKKFSA [r9_616_TrROS]”, the figures for the “folding stability dG unfold” value in data set [1], in data set [2] and in data set [3] were 0.133 ± 0.26 kcal/mol, 0.613 ± 0.23 kcal/mol and 0.394 ± 0.28 kcal/mol, respectively.

Regarding “SPGVTVEISTSTLPNGTRVTTLTTTTFDPQTGTTSTTTTVTVSPAPSSASPLRRELVTRPDGTLVPAALLSA [r9_898_JUSTAS]”, the “folding stability dG unfold” value in data set [1] was -0.234 ± 0.13 kcal/mol; in data set [2], 0.235 ± 0.16 kcal/mol; in data set [3], 0.168 ± 0.076 kcal/mol.

As to “SPGWYKVDIEIPMKEIQEEFGDPDKPITADRIKERVKKIAETIGFEVRDVEIEMDPNGWVRVTVTIPVKNSA [r9_52_TrROS]”, the “folding stability dG unfold” value turned out to be 3.77 ± 0.3 kcal/mol in data set [1], 3.89 ± 0.11 kcal/mol in data set [2] and 3.64 ± 0.19 kcal/mol in data set [3].

In the case of “SPIKLPIVFPNLPKEEAKEAVEALAKELEEKYGFKIEVEVEELRAPDGKLVAVVAIATIEKFGEEDKLLFSA [r9_21_TrMRF]”, the “folding stability dG unfold” value stood at 1.3 ± 0.08 kcal/mol in data set [1], 1.12 ± 0.14 kcal/mol in data set [2] and 1.2 ± 0.18 kcal/mol in data set [3].

Consider “SPIRIRIWNPKNNVPIDEIDIQPNEDGNYGIKIKFWMPGKQHEHTIPIPPGETADEFINDHGIRSIEIEPSA [r9_492_TrROS]”, for which the “folding stability dG unfold” value in data set [1] stood at 0.13 ± 0.085 kcal/mol; in data set [2] it was 1.01 ± 0.11 kcal/mol; in data set [3], 0.7 ± 0.086 kcal/mol.

For the origin of these results see the supplement of paper PMC12764529.
